Values quoted from earlier work, collected in PMC3466315.

Target: NifL 1-140 (Azotobacter vinelandii) (UniProt P30663)
Details: cited from earlier work

NifL 1-140, sequence (P30663 1-140): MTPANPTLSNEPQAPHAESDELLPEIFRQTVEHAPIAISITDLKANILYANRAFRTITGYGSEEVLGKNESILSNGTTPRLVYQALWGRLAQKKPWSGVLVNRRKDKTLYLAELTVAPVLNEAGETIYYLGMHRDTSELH

Q: Which Kd does the source give for NifL 1-140 (from UniProt P30663) here?
A: 150 nM
